Experimental data from article PMC3814156 (Molecular Biology of the Cell, 2013).

Biological target: ezrin FERM domain (residues 1–298), untagged (UniProt P15311 1-298)
Test: pull-down

Sequence of ezrin FERM domain (residues 1–298), untagged (P15311 1-298): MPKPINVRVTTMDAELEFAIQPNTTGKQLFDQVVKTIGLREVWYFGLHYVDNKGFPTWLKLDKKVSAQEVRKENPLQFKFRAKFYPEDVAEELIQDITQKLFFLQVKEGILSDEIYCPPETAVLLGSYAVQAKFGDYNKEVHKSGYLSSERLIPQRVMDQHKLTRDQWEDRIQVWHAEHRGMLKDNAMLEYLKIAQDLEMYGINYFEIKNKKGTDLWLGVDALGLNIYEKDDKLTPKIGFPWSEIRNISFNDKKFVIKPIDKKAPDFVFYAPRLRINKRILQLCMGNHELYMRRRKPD

Row | half-life of dissociation from ezrin FERM beads [min] | Binder
1 | ~16 | SUMO-tagged E3KARP (natural protein, human, UniProt Q15599 1-337, looked up) MAAPEPLRPRLCRLVRGEQGYGFHLHGEKGRRGQFIRRVEPGSPAEAAALRAGDRLVEVNGVNVEGETHHQVVQRIKAVEGQTRLLVVDQETDEELRRRQLTCTEEMAQRGLPPAHDPWEPKPDWAHTGSHSSEAGKKDVSGPLRELRPRLCHLRKGPQGYGFNLHSDKSRPGQYIRSVDPGSPAARSGLRAQDRLIEVNGQNVEGLRHAEVVASIKAREDEARLLVVDPETDEHFKRLRVTPTEEHVEGPLPSPVTNGTSPAQLNGGSACSSRSDLPGSDKDTEDGSAWKQDPFQESGLHLSPTAAEAKEKARAMRVNKRAPQMDWNRKREIFSNF
2 | ~10 | SUMO-tagged EBP50 (natural protein, human, UniProt O14745 1-358, looked up) MSADAAAGAPLPRLCCLEKGPNGYGFHLHGEKGKLGQYIRLVEPGSPAEKAGLLAGDRLVEVNGENVEKETHQQVVSRIRAALNAVRLLVVDPETDEQLQKLGVQVREELLRAQEAPGQAEPPAAAEVQGAGNENEPREADKSHPEQRELRPRLCTMKKGPSGYGFNLHSDKSKPGQFIRSVDPDSPAEASGLRAQDRIVEVNGVCMEGKQHGDVVSAIRAGGDETKLLVVDRETDEFFKKCRVIPSQEHLNGPLPVPFTNGEIQKENSREALAEAALESPRPALVRSASSDTSEELNSQDSPPKQDSTAPSSTSSSDPILDFNISLAMAKERAHQKRSSKRAPQMDWSKKNELFSNL
